Values of other authors in publication PMC7109197.
pKd: −log10 of the molar value. Read-outs that look alike come from different tables or passages of the source.

Assays:
Test in all cases: NMR
[1] = molecular target: cardiac troponin C N-domain (Homo sapiens) (UniProt P63316)
[2] = molecular target: cardiac troponin C N-domain (Homo sapiens) (UniProt P63316); remark: listed apart in the source
[3] = molecular target: cardiac troponin C CTD (Homo sapiens) (UniProt P63316)
[4] = molecular target: cardiac troponin C CTD (Homo sapiens) (UniProt P63316); remark: listed apart in the source

pKd [1] | pKd [2] | pKd [3] | pKd [4] | Substance
3.43 | 3.22 | – | – | cTnI switch peptide switch peptide (from UniProt P19429)
– | – | 5.52 | > 6.00 | cardiac troponin I 34-71 (from UniProt P19429)
